Data from patent US8313920B2, “High-throughput assay for evaluating dipeptidyl peptidase I activity” (Janssen Research & Development, LLC, priority 2008, dated 2012).

Substrate: CC[C@H](C)[C@H](NC(=O)[C@H](CCC(=O)O)NC(=O)CN)C(=O)N[C@H](C(=O)NCC(=O)NCC(=O)N[C@H](C(=O)N[C@@H](CCC(=O)O)C(=O)N[C@@H](CS)C(=O)N[C@@H](CCCCN)C(=O)N1CCC[C@H]1C(=O)N[C@@H](Cc1c[nH]cn1)C(=O)N[C@@H](CO)C(=O)N[C@@H](CCCNC(=N)N)C(=O)N1CCC[C@H]1C(=O)N[C@@H](Cc1ccc(O)cc1)C(=O)N[C@@H](CCSC)C(=O)N[C@@H](C)C(=O)N[C@@H](Cc1ccc(O)cc1)C(=O)N[C@@H](CC(C)C)C(=O)O)[C@@H](C)O)[C@@H](C)CC
Assay: Initial velocity analysis of DPPI with the 20-mer substrate, mass spectrometry
Assay type: biochemical, human
Details: other: 20-mer as DPPI substrate, about 2 nM DPPI, pH 7.0, about 27° C.
Method: FIG. 1. Initial velocity analysis for DPP1 kinetic constant in reaction with a 20-mer substrate (A) and a dipeptide substrate (B). (A) About 2 nM of DPPI was used in the reaction with the 20-mer substrate of […] (SEQ ID NO:1) and the reaction was monitored using a mass spectrometry system. (B) About 0.4 nM of DPP1 was used in the reaction with the dipeptide substrate of GR-α-methylcoumarin and the reaction was monitored using a rate-based format monitoring fluorescence at EM=460 nm and EX=380 nm. Initial rates are taken from kinetic data where less than 7% substrate turnover was achieved.
Once the rate of the substrate turnover under the initial velocity condition, the kinetic constants for DPPI and the peptide substrate are calculated using the following formula (I): Y=VMAX((X+Et+KM)−((((Et+X+KM)^2)−(4XEt))^0.5))/(2Et) wherein • Y is concentration of substrate turnover • X is substrate concentration • Et is DPPI concentration • KM is substrate concentration at ½ VMAX • VMAX is substrate turnover at substrate saturation
About 2 nM of DPPI was incubated with about 0.5, 1, 2, 4, 8, 16, 32, 64, 90, 128, 150 μM of the 20-mer substrate in the reaction buffer of 50 mM HEPES (pH 7.0), 100 mM NaCl, 0.005% Tween-20, and 2 mM of DTT or GSH. […]

B1: dipeptidyl peptidase I (DPPI) (Homo sapiens) (protein)
chain 1: not shown
chain 2: LPTSWDWRNVHGINFVSPVRNQASCGSCYSFASMGMLEARIRILTNNSQTPILSPQEVVSCSQYAQGCEGGFPYLIAGKYAQDFGLVEEACFPYTGTDSPCKMKEDCFRYYSSEYHYVGGFYGGCNEALMKLELVHHGPMAVAFEVYDDFLHYKKGIYHHTGLR
chain 3: not shown
notes: made in house; host or cells: Hi5 insect cells (baculovirus)
Q: Which Km does the source give for B1 here?
A: Its Km is 62 µM.
